Data published in patent US20040146984.

Experiments:
[1] = target: native bovine serum albumin (UniProt P02769)
[2] = tested on: peptide in which the LPSTGE was reversed (EGTSPL)
[3] = tested on: peptide in which the LPSTGE was randomly placed (TEPGSL)
[4] = tested on: T1, LPXTG-containing peptide KRQLPSTGETANPFY from the streptococcal M6 protein
T1 sequence: KRQLPSTGETANPFY

Chain of native bovine serum albumin (P02769 25-607): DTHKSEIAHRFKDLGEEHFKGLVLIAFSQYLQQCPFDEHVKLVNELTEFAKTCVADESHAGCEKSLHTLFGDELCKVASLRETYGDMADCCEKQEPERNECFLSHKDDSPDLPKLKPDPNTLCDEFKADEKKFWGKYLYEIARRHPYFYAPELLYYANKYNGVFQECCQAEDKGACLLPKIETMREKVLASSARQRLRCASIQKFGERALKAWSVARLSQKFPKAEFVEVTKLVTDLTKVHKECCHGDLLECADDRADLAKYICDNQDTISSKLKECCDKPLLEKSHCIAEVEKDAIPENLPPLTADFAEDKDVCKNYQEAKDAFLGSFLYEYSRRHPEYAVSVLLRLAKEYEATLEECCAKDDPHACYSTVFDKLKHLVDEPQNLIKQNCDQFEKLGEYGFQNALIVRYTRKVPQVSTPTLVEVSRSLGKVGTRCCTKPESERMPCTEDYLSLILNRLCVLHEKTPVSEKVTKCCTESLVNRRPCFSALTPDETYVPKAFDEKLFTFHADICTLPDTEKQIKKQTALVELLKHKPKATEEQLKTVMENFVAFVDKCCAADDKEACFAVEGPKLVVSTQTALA

LPXTGase
cleavage (SDS-PAGE for degradation) [1]: No cleavage was observed when native bovine serum albumin was reacted in a similar way | cleavage of bead-bound or free peptide [2]: no cleavage was observed (not shown) | cleavage of bead-bound or free peptide [3]: no cleavage was observed (not shown) | % of control (Calcium chloride 20 mM) [4]: 23 % of control | % of control (Control, no salt) [4]: 100 % of control | % of control (EDTA 20 mM) [4]: 5.2 % of control | % of control (Hydroxylamine-HCl 100 mM) [4]: 27 % of control | % of control (Magnesium chloride 20 mM) [4]: 20 % of control | % of control (Potassium chloride 100 mM) [4]: 20 % of control | % of control (Putrescene chloride 20 mM) [4]: 21 % of control | % of control (Sodium chloride 100 mM) [4]: 16 % of control | % of control (Sodium phosphate 20 mM) [4]: 49 % of control | % of control (Sodium sulfate 20 mM) [4]: 57 % of control | Km (Lineweaver-Burk plot of cleavage of 125I-labeled peptide, 20 to 240 µM, 2.4 µM enzyme, 30 min) [4]: Km of 0.26 mM | Vmax (Lineweaver-Burk plot of cleavage of 125I-labeled peptide) [4]: Vmax of 67 µM in 30 min when 2.4 µM of enzyme was used in the assay | cleavage of bead-bound peptide, N-terminal sequencing of the fragment [4]: the enzyme cleaved after glutamic acid within the LPSTGE (SEQ ID NO:3) sequence releasing the TANPFY (SEQ ID NO:6) peptide fragment | cleavage of free peptide, sequencing of the fragments [4]: the enzyme cleaved the free KRQLPSTGETANPFY (SEQ ID NO:2) peptide at two sites, after the serine and the glutamic acid of LPSTGE | peptide cleaved, cpm (Calcium chloride 20 mM) [4]: 9710 cpm | peptide cleaved, cpm (Control, no salt) [4]: 41500 cpm | peptide cleaved, cpm (EDTA 20 mM) [4]: 2150 cpm | peptide cleaved, cpm (Hydroxylamine-HCl 100 mM) [4]: 11200 cpm | peptide cleaved, cpm (Magnesium chloride 20 mM) [4]: 8620 cpm | peptide cleaved, cpm (Potassium chloride 100 mM) [4]: 8610 cpm | peptide cleaved, cpm (Putrescene chloride 20 mM) [4]: 8710 cpm | peptide cleaved, cpm (Sodium chloride 100 mM) [4]: 6720 cpm | peptide cleaved, cpm (Sodium phosphate 20 mM) [4]: 20600 cpm | peptide cleaved, cpm (Sodium sulfate 20 mM) [4]: 23500 cpm
